Drawing on article PMC9618068, this text covers Pi released from actin in the presence of F1^15-160, compared to F1A and stoichiometry N for two substances.

Test [1] addresses actin (ATP-G-actin from chicken skeletal muscle) (chicken) (UniProt P68139).
Test [2] shares this target. Put plainly: ITC.

Turning to “F1^15-160, an N-terminally truncated version of F1 that lacks Asn13 (domain or fragment)”, in test [1], the Pi released from actin in the presence of F1^15-160, compared to F1A worked out at 25%.

In general, stoichiometry N refers to the number of molecules, sites or subunits per partner or assembly. “fragmin domain-1 (F1) (residues 1 to 160) (domain or fragment)” registered a stoichiometry N in test [2] of 0.956.
